In US20240400614A1, “CLEAVABLE PEPTIDES AND METHODS OF USE THEREOF” (Bright Peak Therapeutics AG, priority 2023, published 2024):
Square brackets hold non-standard residues; d marks the D form. Ends that are not written are not given here. Tyr(3-NO2) = N[C@@H](Cc1ccc(O)c([N+](=O)[O-])c1)C(=O)O; 2Abz = Nc1ccccc1C(=O)O

How the values were obtained:
Assay type in all cases: biochemical
MMP-7 = molecular target: T1, MMP-7 (Homo sapiens, UniProt P09237); assay: FRET peptide cleavage efficiency with MMP-7 (standard pH 7.5; also pH 6.5)
T1 construct: purchased SIGMA CC1059
T1 sequence (P09237 95-267): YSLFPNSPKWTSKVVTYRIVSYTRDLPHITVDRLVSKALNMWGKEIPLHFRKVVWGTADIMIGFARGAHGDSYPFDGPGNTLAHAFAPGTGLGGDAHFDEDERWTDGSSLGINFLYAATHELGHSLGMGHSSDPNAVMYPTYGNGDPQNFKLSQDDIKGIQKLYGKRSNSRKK

uPA = uPA (Homo sapiens, UniProt P00749); assay: FRET peptide cleavage efficiency with uPA
MMP-9 = molecular target: T2, MMP-9 (Homo sapiens, UniProt P14780); assay: FRET peptide cleavage efficiency with MMP-9 (standard pH 7.5; also pH 6.5)
T2 construct: purchased SIGMA PF024
T2 sequence (P14780 94-707): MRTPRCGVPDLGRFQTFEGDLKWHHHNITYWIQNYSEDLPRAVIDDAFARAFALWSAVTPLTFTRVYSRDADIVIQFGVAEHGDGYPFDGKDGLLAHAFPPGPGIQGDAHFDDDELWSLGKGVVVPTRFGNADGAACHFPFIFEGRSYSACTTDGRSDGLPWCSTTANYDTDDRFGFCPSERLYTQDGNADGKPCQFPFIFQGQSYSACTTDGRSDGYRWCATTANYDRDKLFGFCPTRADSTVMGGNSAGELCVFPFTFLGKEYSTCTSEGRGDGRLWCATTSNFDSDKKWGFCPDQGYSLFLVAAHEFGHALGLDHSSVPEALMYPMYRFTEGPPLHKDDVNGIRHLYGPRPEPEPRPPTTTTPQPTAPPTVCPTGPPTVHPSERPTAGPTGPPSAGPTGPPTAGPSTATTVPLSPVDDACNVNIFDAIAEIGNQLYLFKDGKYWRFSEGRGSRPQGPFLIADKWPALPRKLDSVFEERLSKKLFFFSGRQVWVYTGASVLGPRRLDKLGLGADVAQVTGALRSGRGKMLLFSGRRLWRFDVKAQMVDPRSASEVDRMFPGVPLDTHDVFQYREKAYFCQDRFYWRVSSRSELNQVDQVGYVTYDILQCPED

matriptase = molecular target: T3, matriptase (Homo sapiens, UniProt Q9Y5Y6); assay: FRET peptide cleavage efficiency with matriptase
T3 construct: purchased R&D Systems 3946-SEB
T3 sequence (Q9Y5Y6 615-855 limits assumed): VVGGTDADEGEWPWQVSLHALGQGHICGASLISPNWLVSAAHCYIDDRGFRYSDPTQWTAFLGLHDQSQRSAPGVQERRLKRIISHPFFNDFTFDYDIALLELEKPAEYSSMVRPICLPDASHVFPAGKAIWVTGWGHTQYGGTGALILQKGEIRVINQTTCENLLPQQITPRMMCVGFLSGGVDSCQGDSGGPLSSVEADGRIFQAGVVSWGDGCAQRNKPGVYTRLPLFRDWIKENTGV

MMP-2 = molecular target: T4, MMP-2 (Homo sapiens, UniProt P08253); assay: FRET peptide cleavage efficiency with MMP-2
T4 construct: purchased SIGMA PF023
T4 sequence (P08253 110-660): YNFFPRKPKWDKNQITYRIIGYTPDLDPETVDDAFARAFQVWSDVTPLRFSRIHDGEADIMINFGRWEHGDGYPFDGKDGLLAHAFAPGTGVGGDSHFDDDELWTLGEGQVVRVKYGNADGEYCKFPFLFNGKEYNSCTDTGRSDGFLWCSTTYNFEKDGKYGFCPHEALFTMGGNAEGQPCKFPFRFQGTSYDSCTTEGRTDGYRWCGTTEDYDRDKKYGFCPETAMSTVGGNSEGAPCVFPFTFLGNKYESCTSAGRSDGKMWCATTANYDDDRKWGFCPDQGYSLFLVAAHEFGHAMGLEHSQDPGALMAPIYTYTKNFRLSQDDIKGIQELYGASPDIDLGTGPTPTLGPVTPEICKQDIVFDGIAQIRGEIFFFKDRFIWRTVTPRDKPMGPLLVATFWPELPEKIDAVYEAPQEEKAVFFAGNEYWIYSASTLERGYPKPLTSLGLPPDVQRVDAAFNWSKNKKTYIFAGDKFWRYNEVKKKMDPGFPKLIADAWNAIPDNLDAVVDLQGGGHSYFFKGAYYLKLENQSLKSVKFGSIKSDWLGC

[1] = t = 15 min, standard conditions (Table 8)
[2] = t = 60 min, standard conditions (Table 8)
[3] = t = 120 min, standard conditions (Table 8)
[4] = 200 uM linker, 1 ug/ml protease, 37° C., buffer A pH 8.5
[5] = t = 60 min, 200 uM linker, 1 ug/ml protease, 37° C., buffer A pH 8.5
[6] = t = 120 min, 200 uM linker, 1 ug/ml protease, 37° C., buffer A pH 8.5
[7] = t = 15 min, 200 uM linker, 1 ug/ml protease, 37° C., buffer B pH 9.0
[8] = t = 60 min, 200 uM linker, 1 ug/ml protease, 37° C., buffer B pH 9.0
[9] = 200 uM linker, 1 ug/ml protease, 37° C., buffer B pH 9.0
[10] = t = 15 min, 200 uM linker, 1 ug/ml protease, 37° C., buffer C pH 7.5
[11] = t = 60 min, 200 uM linker, 1 ug/ml protease, 37° C., buffer C pH 7.5
[12] = t = 120 min, 200 uM linker, 1 ug/ml protease, 37° C., buffer C pH 7.5

SGRVYMLQG ([2Abz]SGRVYMLQG[Tyr(3-NO2)]-NH2) [LNK044]
% cleavage MMP-7 t = 15 min (MMP-7; t = 15 min (Table 9)): 1% | % cleavage MMP-7 t = 15 min (MMP-7; [1]): 1% | % cleavage MMP-7 t = 60 min (MMP-7; t = 60 min (Table 9)): 4% | % cleavage MMP-7 t = 60 min (MMP-7; [2]): 4% | % cleavage MMP-7 t = 120 min (MMP-7; t = 120 min (Table 9)): 9% | % cleavage MMP-7 t = 120 min (MMP-7; [3]): 9% | % vcleavage uPA t = 15 min (uPA; standard conditions (Table 8)): 0% | % cleavage uPA t = 60 min (uPA; [2]): 0% | % cleavage uPA t = 120 min (uPA; [3]): 0% | % cleavage MMP-9 t = 15 min (MMP-9; t = 15 min (Table 9)): 0% | % cleavage MMP-9 t = 15 min (MMP-9; [1]): 0% | % cleavage MMP-9 t = 60 min (MMP-9; t = 60 min (Table 9)): 1% | % cleavage MMP-9 t = 60 min (MMP-9; [2]): 1% | % cleavage MMP-9 t = 120 min (MMP-9; t = 120 min (Table 9)): 2% | % cleavage MMP-9 t = 120 min (MMP-9; [3]): 2% | % cleavage Matriptase t = 15 min (matriptase; [1]): 0% | % cleavage Matriptase t = 60 min (matriptase; [2]): 0% | % cleavage Matriptase t = 120 min (matriptase; standard conditions (Table 8)): 0% | % cleavage MMP-2 t = 15 min (MMP-2; t = 15 min (Table 9)): 0% | % cleavage MMP-2 t = 60 min (MMP-2; t = 60 min (Table 9)): 0% | % cleavage MMP-2 t = 60 min (MMP-2; [2]): 0% | % cleavage MMP-2 t = 120 min (MMP-2; t = 120 min (Table 9)): 1% | % cleavage MMP-2 t = 120 min (MMP-2; [3]): 1%

RGRRGP ([2Abz]RGRRGP[Tyr(3-NO2)]-NH2) [LNK048]
% cleavage MMP-7 t = 15 min (MMP-7; t = 15 min (Table 9)): 0% | % cleavage MMP-7 t = 15 min (MMP-7; [1]): 0% | % cleavage MMP-7 t = 60 min (MMP-7; t = 60 min (Table 9)): 0% | % cleavage MMP-7 t = 60 min (MMP-7; [2]): 0% | % cleavage MMP-7 t = 120 min (MMP-7; t = 120 min (Table 9)): 0% | % cleavage MMP-7 t = 120 min (MMP-7; [3]): 0% | % vcleavage uPA t = 15 min (uPA; standard conditions (Table 8)): 0% | % cleavage uPA t = 60 min (uPA; [2]): 0% | % cleavage uPA t = 120 min (uPA; [3]): 0% | % cleavage MMP-9 t = 15 min (MMP-9; t = 15 min (Table 9)): 0% | % cleavage MMP-9 t = 15 min (MMP-9; [1]): 0% | % cleavage MMP-9 t = 60 min (MMP-9; t = 60 min (Table 9)): 0% | % cleavage MMP-9 t = 60 min (MMP-9; [2]): 0% | % cleavage MMP-9 t = 120 min (MMP-9; t = 120 min (Table 9)): 0% | % cleavage MMP-9 t = 120 min (MMP-9; [3]): 0% | % cleavage Matriptase t = 15 min (matriptase; [1]): 100% | % cleavage Matriptase t = 60 min (matriptase; [2]): 100% | % cleavage Matriptase t = 120 min (matriptase; standard conditions (Table 8)): 100% | % cleavage MMP-2 t = 15 min (MMP-2; t = 15 min (Table 9)): 0% | % cleavage MMP-2 t = 60 min (MMP-2; t = 60 min (Table 9)): 0% | % cleavage MMP-2 t = 60 min (MMP-2; [2]): 0% | % cleavage MMP-2 t = 120 min (MMP-2; t = 120 min (Table 9)): 0% | % cleavage MMP-2 t = 120 min (MMP-2; [3]): 0%

SSRGPYMLQG ([2Abz]SSRGPYMLQG[Tyr(3-NO2)]-NH2) [LNK022]
% cleavage MMP-7 t = 15 min (MMP-7; t = 15 min (Table 9)): 40% | % cleavage MMP-7 t = 60 min (MMP-7; t = 60 min (Table 9)): 0% | % cleavage MMP-7 t = 120 min (MMP-7; t = 120 min (Table 9)): 100% | % cleavage uPA t = 60 min (uPA; pH 6.5, t = 60 min (Table 7)): 0% | % cleavage uPA t = 120 min (uPA; pH 6.5, t = 120 min (Table 7)): 0% | % cleavage uPA t = 60 min (uPA; pH 7.5, t = 60 min (Table 7)): 0% | % cleavage uPA t = 120 min (uPA; pH 7.5, t = 120 min (Table 7)): 0% | % cleavage uPA t = 15 min (uPA; [4]): 0% | % cleavage uPA t = 60 min (uPA; [5]): 1% | % cleavage uPA t = 120 min (uPA; [6]): 3% | % cleavage MMP-9 t = 15 min (MMP-9; t = 15 min (Table 9)): 63% | % cleavage MMP-9 t = 60 min (MMP-9; t = 60 min (Table 9)): 99% | % cleavage MMP-9 t = 120 min (MMP-9; t = 120 min (Table 9)): 100% | % cleavage Matriptase t = 15 min (matriptase; pH 6.5, t = 15 min (Table 7)): 0% | % cleavage Matriptase t = 60 min (matriptase; pH 6.5, t = 60 min (Table 7)): 0% | % cleavage Matriptase t = 15 min (matriptase; pH 7.5, t = 15 min (Table 7)): 0% | % cleavage Matriptase t = 60 min (matriptase; pH 7.5, t = 60 min (Table 7)): 0% | % cleavage Matriptase t = 15 min (matriptase; [7]): 8% | % cleavage Matriptase t = 60 min (matriptase; [8]): 9% | % cleavage Matriptase t = 120 min (matriptase; [9]): 11% | % cleavage MMP-2 t = 15 min (MMP-2; pH 6.5, t = 15 min (Table 7)): 32% | % cleavage MMP-2 t = 60 min (MMP-2; pH 6.5, t = 60 min (Table 7)): 74% | % cleavage MMP-2 t = 15 min (MMP-2; pH 7.5, t = 15 min (Table 7)): 36% | % cleavage MMP-2 t = 60 min (MMP-2; pH 7.5, t = 60 min (Table 7)): 84% | % cleavage MMP-2 t = 15 min (MMP-2; t = 15 min (Table 9)): 27% | % cleavage MMP-2 t = 15 min (MMP-2; [10]): 31% | % cleavage MMP-2 t = 60 min (MMP-2; t = 60 min (Table 9)): 79% | % cleavage MMP-2 t = 60 min (MMP-2; [11]): 81% | % cleavage MMP-2 t = 120 min (MMP-2; t = 120 min (Table 9)): 94% | % cleavage MMP-2 t = 120 min (MMP-2; [12]): 96%

SSRGRRGPYMLQG ([2Abz]SSRGRRGPYMLQG[Tyr(3-NO2)]-NH2) [LNK021]
% cleavage MMP-7 t = 15 min (MMP-7; t = 15 min (Table 9)): 22% | % cleavage MMP-7 t = 60 min (MMP-7; t = 60 min (Table 9)): 69% | % cleavage MMP-7 t = 120 min (MMP-7; t = 120 min (Table 9)): 83% | % cleavage uPA t = 60 min (uPA; pH 6.5, t = 60 min (Table 7)): 0% | % cleavage uPA t = 120 min (uPA; pH 6.5, t = 120 min (Table 7)): 0% | % cleavage uPA t = 60 min (uPA; pH 7.5, t = 60 min (Table 7)): 10% | % cleavage uPA t = 120 min (uPA; pH 7.5, t = 120 min (Table 7)): 19% | % cleavage uPA t = 15 min (uPA; [4]): 5% | % cleavage uPA t = 60 min (uPA; [5]): 16% | % cleavage uPA t = 120 min (uPA; [6]): 27% | % cleavage MMP-9 t = 15 min (MMP-9; t = 15 min (Table 9)): 60% | % cleavage MMP-9 t = 60 min (MMP-9; t = 60 min (Table 9)): 98% | % cleavage MMP-9 t = 120 min (MMP-9; t = 120 min (Table 9)): 100% | % cleavage Matriptase t = 15 min (matriptase; pH 6.5, t = 15 min (Table 7)): 100% | % cleavage Matriptase t = 60 min (matriptase; pH 6.5, t = 60 min (Table 7)): 100% | % cleavage Matriptase t = 15 min (matriptase; pH 7.5, t = 15 min (Table 7)): 100% | % cleavage Matriptase t = 60 min (matriptase; pH 7.5, t = 60 min (Table 7)): 100% | % cleavage Matriptase t = 15 min (matriptase; [7]): 100% | % cleavage Matriptase t = 60 min (matriptase; [8]): 100% | % cleavage Matriptase t = 120 min (matriptase; [9]): 100% | % cleavage MMP-2 t = 15 min (MMP-2; pH 6.5, t = 15 min (Table 7)): 26% | % cleavage MMP-2 t = 60 min (MMP-2; pH 6.5, t = 60 min (Table 7)): 64% | % cleavage MMP-2 t = 15 min (MMP-2; pH 7.5, t = 15 min (Table 7)): 24% | % cleavage MMP-2 t = 60 min (MMP-2; pH 7.5, t = 60 min (Table 7)): 64% | % cleavage MMP-2 t = 15 min (MMP-2; t = 15 min (Table 9)): 20% | % cleavage MMP-2 t = 15 min (MMP-2; [10]): 23% | % cleavage MMP-2 t = 60 min (MMP-2; t = 60 min (Table 9)): 64% | % cleavage MMP-2 t = 60 min (MMP-2; [11]): 66% | % cleavage MMP-2 t = 120 min (MMP-2; t = 120 min (Table 9)): 100% | % cleavage MMP-2 t = 120 min (MMP-2; [12]): 88%
